Experimental data as given in article PMC7854685, “Histone Parylation factor 1 contributes to the inhibition of PARP1 by cancer drugs” (Nature Communications, 2021).

How the values were obtained:
[1] = molecular target: T1, Poly-(ADP-ribose) polymerase 1 (PARP1), wild type, labelled with Alexa488, bound to p18mer DNA (UniProt P09874 1-1014, Alexa488 C4 maleimide label (extent of labeling typically 50-100%)); test: FRET or BRET; as a3 but with olaparib (1 uM): Alexa647-HPF1 titrated into Alexa488-PARP1 (0.2 uM) premixed with p18mer DNA (0.2 uM) and olaparib; binding buffer; details: both partners purified
T1 construct: Poly-(ADP-ribose) polymerase 1 (PARP1), wild type; In the assay premixed with p18mer double-stranded DNA (0.2 uM); the DNA is no protein chain; also called PARP1 - p18mer complex; 488-labeled PARP1
T1 sequence (P09874 whole entry): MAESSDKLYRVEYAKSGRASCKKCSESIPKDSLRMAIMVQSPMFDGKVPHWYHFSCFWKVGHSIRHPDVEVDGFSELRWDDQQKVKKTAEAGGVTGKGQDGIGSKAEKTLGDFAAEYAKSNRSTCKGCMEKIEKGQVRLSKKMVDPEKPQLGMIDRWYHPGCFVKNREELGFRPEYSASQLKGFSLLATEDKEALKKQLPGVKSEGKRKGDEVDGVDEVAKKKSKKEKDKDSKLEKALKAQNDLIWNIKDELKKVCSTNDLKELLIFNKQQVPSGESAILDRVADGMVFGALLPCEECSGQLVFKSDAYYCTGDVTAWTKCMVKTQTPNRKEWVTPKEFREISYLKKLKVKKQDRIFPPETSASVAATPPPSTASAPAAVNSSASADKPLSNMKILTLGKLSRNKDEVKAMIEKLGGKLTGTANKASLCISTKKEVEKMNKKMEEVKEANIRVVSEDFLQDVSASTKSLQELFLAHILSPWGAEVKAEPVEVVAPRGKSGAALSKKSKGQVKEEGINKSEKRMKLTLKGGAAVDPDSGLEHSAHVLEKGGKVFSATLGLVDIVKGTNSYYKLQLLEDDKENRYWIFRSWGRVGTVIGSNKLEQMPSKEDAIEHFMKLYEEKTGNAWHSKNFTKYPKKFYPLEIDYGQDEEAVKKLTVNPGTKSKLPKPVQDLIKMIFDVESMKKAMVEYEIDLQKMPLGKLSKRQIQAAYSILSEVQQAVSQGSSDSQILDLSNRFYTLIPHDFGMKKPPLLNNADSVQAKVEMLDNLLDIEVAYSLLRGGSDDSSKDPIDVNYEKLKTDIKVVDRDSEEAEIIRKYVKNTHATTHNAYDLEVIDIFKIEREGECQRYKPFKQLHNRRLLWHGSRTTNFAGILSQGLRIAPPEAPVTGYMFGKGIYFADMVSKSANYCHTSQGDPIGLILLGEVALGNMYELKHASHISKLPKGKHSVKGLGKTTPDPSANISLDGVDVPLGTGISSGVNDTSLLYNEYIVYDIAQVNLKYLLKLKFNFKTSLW

[2] = molecular target: T1, Poly-(ADP-ribose) polymerase 1 (PARP1), …; test: FRET or BRET; Alexa647-HPF1 (0.6-10,000 nM) titrated into Alexa488-PARP1 (0.2 uM) premixed with p18mer DNA (0.2 uM) and DMSO (control, no olaparib); binding buffer 50 mM Tris-HCl pH 8.0, 50 mM NaCl, 1 mM MgCl2, 0.1 mM EDTA, 0.01% IGEPAL; details: both partners purified

B1: Histone PARylation factor 1 (HPF1), labelled with Alexa647 (natural protein)
chain: LRKEVENHYKLSLPEDFYHFWKFCEELDPEKPSDSLSASLGLQLVGPYDILAGKHKTKKKSTGLNFNLHWRFYYDPPEFQTIIIGDNKTQYHMGYFRDSPDEFPVYVGINEAKKNCIIVPNGDNVFAAVKLFLTKKLREITDKKKINLLKNIDEKLTEAARELGYSLEQRTVKMKQRDKKVVTKTFHGAGLVVPVDKNDVGYRELPETDADLKRICKTIVEAASDEERLKAFAPIQEMMTFVQFANDECDYGMGLELGMDLFCYGSHYFHKVAGQLLPLAYNLLKRNLFAEIIEEHLANRSQENIDQLAA
modifications: Alexa647 C2 maleimide label (extent of labeling typically 50-100%)
notes: Histone PARylation factor 1 (HPF1); also called wild-type protein
Binder B1 has a Kd [1] of 1200 nM and a Kd [2] of 3800 nM.
